# Experimental data taken from doi:10.1101/2022.01.05.475064.
# Changes are numbered by the printed parent chain.
# T1: NtHY5 (6xHis-HY5) (Nicotiana tabacum, UniProt A0A1S3YJY6 1-158)
# T1 sequence: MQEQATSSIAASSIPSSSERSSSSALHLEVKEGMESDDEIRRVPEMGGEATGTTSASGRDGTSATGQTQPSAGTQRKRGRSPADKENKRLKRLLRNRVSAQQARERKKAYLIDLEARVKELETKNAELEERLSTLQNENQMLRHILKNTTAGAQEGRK
# B1: NtPMT P1 (G-BOX I) (dsDNA)
# DNA 1: CAGTCTAACCATGCACGTTGTAATGATTTT
# DNA 2: AAAATCATTACAACGTGCATGGTTAGACTG
# B2: NtPMT P2 (G-BOX II) (dsDNA)
# DNA 1: TACTGTTTCCGCAACGTGCTCTTCATCAGG
# DNA 2: CCTGATGAAGAGCACGTTGCGGAAACAGTA
# B3: NtQPT P1 (G-BOX I) (dsDNA)
# DNA 1: CATAAATAAAACGTGTTCAGCTACTAAAAC
# DNA 2: GTTTTAGTAGCTGAACACGTTTTATTTATG
# B4: NtODC P1 (G-BOX I) (dsDNA)
# DNA 1: ATCTGATCACCTAACGTGACCAAGAAAATA
# DNA 2: TATTTTCTTGGTCACGTTAGGTGATCAGAT
# B5: NtPMT Mut P1 (G-mut I) (dsDNA)
# DNA 1: CAGTCTAACCATGATTAATGTAATGATTTT
# DNA 2: AAAATCATTACATTAATCATGGTTAGACTG
# B6: NtPMT Mut P2 (G-mut II) (dsDNA)
# DNA 1: B2 DNA 1 with C15T, G16C, G18T
# DNA 2: B2 DNA 2 with C13A, C15G, G16A
# B7: NtQPT Mut P1 (dsDNA)
# DNA 1: CATAAATAAAATTCATTCAGCTACTAAAAC
# DNA 2: GTTTTAGTAGCTGAATGAATTTTATTTATG
# B8: NtODC Mut P1 (dsDNA)
# DNA 1: B4 DNA 1 with C15T, G16A, G18C
# DNA 2: B4 DNA 2 with C13G, C15T, G16A
# B9: NtMYB12 P1 (G-BOX I) (dsDNA)
# DNA 1: AACTTGAAATAATACGTTAAAAGATAAAA
# DNA 2: TTTTATCTTTTAACGTATTATTTCAAGT
# B10: NtMYB12 P2 (G-BOX II) (dsDNA)
# DNA 1: AGTCAACTTTGCAACGTAAAAGTCCACACA
# DNA 2: TGTGTGGACTTTTACGTTGCAAAGTTGACT
# Target: T1, NtHY5 (6xHis-HY5)
# Assay: EMSA
row,Binder,binding result
1,B1,binds
2,B2,binds
3,B3,binds
4,B4,binds
5,B5,no binding
6,B6,no binding
7,B7,no binding
8,B8,no binding
9,B9,binds
10,B10,binds
